Results as given in the supplement of paper PMC10567573.

B1: RAB11B (parent)
chain: AVPTDEARAFAEKNNLSFIETSAL

Variants of: B1
Assay: protein stability index of a GFP-peptide fusion (GPS, HEK-293T) (PSI 1-6); higher = more stable
Conditions: c terminus: a fixed tail appended
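Also: lentivirally expressed fusions sorted by FACS into six bins by GFP to DsRed ratio, PSI derived from sequencing read proportions per bin multiplied by bin number.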

First: AVPTDQARAFAEKNNLSFIETSAL [E6Q]
Second: AVPTDAARAFAEKNNLSFIETSAL [E6A]
The protein stability index of the first is lower: 2.24 for the first, 2.45 for the second.

Compared with AVPTDTARAFAEKNNLSFIETSAL [E6T], AVPTDVARAFAEKNNLSFIETSAL [E6V] is higher in protein stability index: 2 for the first, 2.08 for the second.

Compared with AVPTDLARAFAEKNNLSFIETSAL [E6L], AVPTDIARAFAEKNNLSFIETSAL [E6I] is higher in protein stability index: 2.32 for the first, 2.71 for the second.

Going from AVPTDKARAFAEKNNLSFIETSAL [E6K] to AVPTDMARAFAEKNNLSFIETSAL [E6M], the protein stability index rises from 2.04 to 2.19.

Compared with AVPTDWARAFAEKNNLSFIETSAL [E6W], AVPTDGARAFAEKNNLSFIETSAL [E6G] is higher in protein stability index: 2.04 for the first, 2.58 for the second.

Going from AVPTDHARAFAEKNNLSFIETSAL [E6H] to AVPTDEAREFAEKNNLSFIETSAL [A9E], the protein stability index rises from 2.61 to 3.82.

Going from AVPTDEARHFAEKNNLSFIETSAL [A9H] to AVPTDEARRFAEKNNLSFIETSAL [A9R], the protein stability index rises from 2.07 to 2.32.

First: AVPTDEARTFAEKNNLSFIETSAL [A9T]
Second: AVPTDEARSFAEKNNLSFIETSAL [A9S]
The protein stability index of the first is higher: 3.02 for the first, 2.33 for the second.

First: AVPTDEARPFAEKNNLSFIETSAL [A9P]
Second: AVPTDEARNFAEKNNLSFIETSAL [A9N]
The protein stability index of the first is lower: 2.44 for the first, 2.52 for the second.

First: AVPTDEARDFAEKNNLSFIETSAL [A9D]
Second: AVPTDEARCFAEKNNLSFIETSAL [A9C]
The protein stability index of the first is higher: 3.4 for the first, 2.49 for the second.

First: AVPTDEARVFAEKNNLSFIETSAL [A9V]
Second: AVPVDEARAFAEKNNLSFIETSAL [T4V]
The protein stability index of the first is lower: 2.71 for the first, 2.78 for the second.

Going from AVPLDEARAFAEKNNLSFIETSAL [T4L] to AVPPDEARAFAEKNNLSFIETSAL [T4P], the protein stability index rises from 2.33 to 2.5.

Compared with AVPHDEARAFAEKNNLSFIETSAL [T4H], AVPTDEARAFAEKNNLSFIETDAL [S22D] is higher in protein stability index: 2.5 for the first, 4.17 for the second.

First: AVPTDEARAFAEKNNLSFIETGAL [S22G]
Second: AVPTDEARAFAEKNNLSFIETYAL [S22Y]
The protein stability index of the first is higher: 2.85 for the first, 1.96 for the second.

First: AVPTDEARAFAEKNNLSFIETLAL [S22L]
Second: AVPTDEARAFAEKNNLSFIETMAL [S22M]
The protein stability index of the first is higher: 3.08 for the first, 2.83 for the second.

Compared with AVPTDEARAFAEKNNLSFIETQAL [S22Q], AVPTDEARAFAEKNNLSFIEGSAL [T21G] is lower in protein stability index: 3.56 for the first, 2.38 for the second.

Compared with AVPTDEARAFAEKNNLSFIEMSAL [T21M], AVPTDEARAFAEKNNLSFIESSAL [T21S] is higher in protein stability index: 3.35 for the first, 3.64 for the second.

Compared with AVPTDEARAFAEKNNLSFIEPSAL [T21P], AVPTDEARAFAEKNNLSFIEISAL [T21I] is lower in protein stability index: 2.35 for the first, 2.3 for the second.

Going from AVPTDEARAFAEKNNLSFIEQSAL [T21Q] to AVPTDEARAFAEKNNLSFIEASAL [T21A], the protein stability index falls from 4.12 to 3.41.

First: AVPTDEARAFSEKNNLSFIETSAL [A11S]
Second: AVPTDEARAFGEKNNLSFIETSAL [A11G]
The protein stability index of the first is higher: 2.68 for the first, 2.16 for the second.

Going from AVPTDEARAFWEKNNLSFIETSAL [A11W] to AVPTDEARAFNEKNNLSFIETSAL [A11N], the protein stability index rises from 2.48 to 2.87.

Going from AVPTDEARAFLEKNNLSFIETSAL [A11L] to AVPTDEARAFREKNNLSFIETSAL [A11R], the protein stability index falls from 2.4 to 2.35.

First: AVPTDEARAFCEKNNLSFIETSAL [A11C]
Second: AVPTDEARAFPEKNNLSFIETSAL [A11P]
The protein stability index of the first is higher: 3.16 for the first, 2.8 for the second.

Compared with AVPTDEARAFAEKNNLSFIETSAE [L24E], AVPTDEARAFAEKNNLSFIETSAA [L24A] is lower in protein stability index: 4.74 for the first, 3.49 for the second.

Compared with AVPTDEARAFAEKNNLSFIETSAT [L24T], AVPTDEARAFAEKNNLSFIETSAN [L24N] is higher in protein stability index: 3.55 for the first, 4.87 for the second.

Compared with AVPTDEARAFAEKNNLSFIETSAM [L24M], AVPTDEARAFAEKNNLSFIETSAF [L24F] is lower in protein stability index: 3.13 for the first, 2.43 for the second.

First: AVPTDEARAFAEKNNLSFIETSAD [L24D]
Second: AVPTDEARAFAEKNNLSFIETSAY [L24Y]
The protein stability index of the first is higher: 5.12 for the first, 3.21 for the second.

First: AVPTDEARAFAEKNNLSFIETSCL [A23C]
Second: AVPTDEARAFAEKNNLSFIETSQL [A23Q]
The protein stability index of the first is higher: 2.9 for the first, 2.86 for the second.

First: AVPTDEARAFAEKNNLSFIETSDL [A23D]
Second: AVPTDEARAFAEKNNLSFIETSYL [A23Y]
The protein stability index of the first is higher: 4.11 for the first, 2.43 for the second.

Going from AVPTDEARAFAEKNNLSFIETSWL [A23W] to AVPTDEARAFAEKNNLSFIETSIL [A23I], the protein stability index falls from 2.15 to 2.09.

Compared with AVPTDEARAFAEKNNLSFIETSEL [A23E], AVPTDEARAFAEKNNLSFIETSLL [A23L] is lower in protein stability index: 4.41 for the first, 2.4 for the second.

Going from AVPTDEARAFAEKNNLSFIETSSL [A23S] to AVPTDEARAFAEKNNLSFIETSNL [A23N], the protein stability index falls from 3.38 to 2.88.

Compared with AVPTDEARAFAEKNNNSFIETSAL [L16N], AVPTDEARAFAEKNNFSFIETSAL [L16F] is lower in protein stability index: 4.25 for the first, 3.36 for the second.

Compared with AVPTDEARAFAEKNNKSFIETSAL [L16K], AVPTDEARAFAEKNNRSFIETSAL [L16R] is lower in protein stability index: 4.62 for the first, 4.42 for the second.

Going from AVPTDEARAFAEKNNHSFIETSAL [L16H] to AVPTDEARAFAEKNNMSFIETSAL [L16M], the protein stability index rises from 4.06 to 4.2.

Compared with AVPTDEARAFAEKNNESFIETSAL [L16E], AVPTDEARAFAEKNNISFIETSAL [L16I] is lower in protein stability index: 5.02 for the first, 3.95 for the second.

Compared with PVPTDEARAFAEKNNLSFIETSAL [A1P], WVPTDEARAFAEKNNLSFIETSAL [A1W] is lower in protein stability index: 3.02 for the first, 2.26 for the second.

Compared with HVPTDEARAFAEKNNLSFIETSAL [A1H], CVPTDEARAFAEKNNLSFIETSAL [A1C] is lower in protein stability index: 2.9 for the first, 2.43 for the second.

Compared with QVPTDEARAFAEKNNLSFIETSAL [A1Q], SVPTDEARAFAEKNNLSFIETSAL [A1S] is higher in protein stability index: 2.63 for the first, 2.65 for the second.

First: MVPTDEARAFAEKNNLSFIETSAL [A1M]
Second: AVPTDEARAFAEKNNLVFIETSAL [S17V]
The protein stability index of the first is lower: 2.64 for the first, 3.15 for the second.

Compared with AVPTDEARAFAEKNNLKFIETSAL [S17K], AVPTDEARAFAEKNNLRFIETSAL [S17R] is lower in protein stability index: 3.79 for the first, 3.41 for the second.

First: AVPTDEARAFAEKNNLAFIETSAL [S17A]
Second: AVPTDEARAFAEKNNLYFIETSAL [S17Y]
The protein stability index of the first is lower: 2.78 for the first, 2.85 for the second.

Compared with AVPTDEARAFAEKNNLNFIETSAL [S17N], AVPTDEHRAFAEKNNLSFIETSAL [A7H] is lower in protein stability index: 2.86 for the first, 2.23 for the second.

Going from AVPTDEQRAFAEKNNLSFIETSAL [A7Q] to AVPTDEIRAFAEKNNLSFIETSAL [A7I], the protein stability index falls from 3.46 to 2.39.

Going from AVPTDEYRAFAEKNNLSFIETSAL [A7Y] to AVPTDECRAFAEKNNLSFIETSAL [A7C], the protein stability index falls from 2.94 to 2.47.

Compared with AVPTDEVRAFAEKNNLSFIETSAL [A7V], AVPTDETRAFAEKNNLSFIETSAL [A7T] is higher in protein stability index: 2.7 for the first, 3.17 for the second.

Compared with AVPTDEWRAFAEKNNLSFIETSAL [A7W], AVPTDENRAFAEKNNLSFIETSAL [A7N] is higher in protein stability index: 2.58 for the first, 3.1 for the second.
